# T1: PaeCascade (type I-F Csy complex: Csy1, Csy2, Csy3, Csy4 + crRNA) (Pseudomonas aeruginosa, UniProt Q02ML9;Q02MM0;Q02MM1;Q02MM2 1-434;1-327;1-342;1-187)
# T1 sequence 1: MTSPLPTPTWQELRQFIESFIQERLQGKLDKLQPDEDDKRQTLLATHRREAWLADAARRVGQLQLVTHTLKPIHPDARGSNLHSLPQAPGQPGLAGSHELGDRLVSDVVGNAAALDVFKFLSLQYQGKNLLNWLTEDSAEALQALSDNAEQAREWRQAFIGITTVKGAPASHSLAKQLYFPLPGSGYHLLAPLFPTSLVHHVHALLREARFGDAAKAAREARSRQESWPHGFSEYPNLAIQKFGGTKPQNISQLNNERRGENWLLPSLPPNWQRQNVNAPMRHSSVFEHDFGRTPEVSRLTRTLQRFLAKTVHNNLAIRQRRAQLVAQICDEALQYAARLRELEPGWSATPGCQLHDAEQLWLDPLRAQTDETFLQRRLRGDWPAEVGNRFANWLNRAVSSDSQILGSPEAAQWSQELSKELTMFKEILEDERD
# T1 sequence 2: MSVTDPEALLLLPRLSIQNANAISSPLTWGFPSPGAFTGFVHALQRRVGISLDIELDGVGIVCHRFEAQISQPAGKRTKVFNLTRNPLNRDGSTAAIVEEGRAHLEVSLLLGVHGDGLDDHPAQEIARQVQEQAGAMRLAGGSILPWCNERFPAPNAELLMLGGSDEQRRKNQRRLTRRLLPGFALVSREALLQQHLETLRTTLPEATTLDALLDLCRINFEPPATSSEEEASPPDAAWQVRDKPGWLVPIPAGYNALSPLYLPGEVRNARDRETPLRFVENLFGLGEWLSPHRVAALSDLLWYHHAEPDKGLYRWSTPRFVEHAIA
# T1 sequence 3: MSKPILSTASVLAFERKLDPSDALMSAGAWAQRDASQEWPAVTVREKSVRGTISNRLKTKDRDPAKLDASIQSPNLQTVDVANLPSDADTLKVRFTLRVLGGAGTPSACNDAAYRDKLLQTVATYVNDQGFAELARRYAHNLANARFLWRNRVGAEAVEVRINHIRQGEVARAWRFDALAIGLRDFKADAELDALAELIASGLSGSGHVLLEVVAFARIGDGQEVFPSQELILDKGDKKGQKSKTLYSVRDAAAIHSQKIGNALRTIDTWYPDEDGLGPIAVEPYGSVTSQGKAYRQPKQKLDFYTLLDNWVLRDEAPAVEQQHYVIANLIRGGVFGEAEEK
# T1 sequence 4: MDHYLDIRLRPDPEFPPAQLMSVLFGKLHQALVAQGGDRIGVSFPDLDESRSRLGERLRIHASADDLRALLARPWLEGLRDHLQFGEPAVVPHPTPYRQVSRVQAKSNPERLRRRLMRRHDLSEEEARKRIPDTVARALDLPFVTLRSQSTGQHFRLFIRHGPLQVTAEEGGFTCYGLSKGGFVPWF
# Biological target: T1, PaeCascade (type I-F Csy complex: Csy1, …)
# Assay: EMSA; crRNA-loaded complex; 200 nM DNA; 1 mM EDTA; 50 mM HEPES-Na pH 7.0, 50 mM NaCl, 1 mM DTT, 1 mM EDTA, 10 IU RNase inhibitor, 200 nM dsDNA, 37 C 30 min; non-denaturing TBE-PAGE, GelRed stain
# Settings: protein: recombinant; copies: 1;1;6;1; blunt
binder,measurement,value
type I-F EMSA target dsDNA (dsDNA) DNA 1: CTATCGAAGCAATACAGGTAGACGCGGACATCAAGCCCGCCGTGAAGGTGCAGCTTCTC DNA 2: GAGAAGCTGCACCTTCACGGCGGGCTTGATGTCCGCGTCTACCTGTATTGCTTCGATAG,binding result,binds

# Reference: article PMC7305327, “Repurposing type I–F CRISPR–Cas system as a transcriptional activation tool in human cells”
